Series [1] deals with anti-isatuximab antibodies. In words: Immunogenicity: antidrug antibodies (ADA). As to conditions: in vivo. Also noted: species or system human. The procedure: The presence of antidrug antibodies (ADA, i.e., anti-isatuximab antibodies) in patients in the IPd arm were assessed throughout the study.
Series [2] can be described thus: Population pharmacokinetics of isatuximab. It is filed as in vivo, human. As to conditions: patients with renal impairment vs those without. From the text: Blood samples were collected from all patients treated with […] to assess the pharmacokinetic profile of isatuximab using population pharmacokinetic approach.

Turning to “isatuximab: anti-CD38 antibody, CAS Registry Number 1461640-62-9; heavy chain SEQ ID NO: 10, light chain SEQ ID NO: 11”, the “anti-drug antibodies (ADA)” value in series [1] was “No positive ADA”. The Pharmacokinetic parameters entry in series [2] was “comparable between patients with renal impairment and those without”.
